According to the Human Domainome abundance scans (Beltran et al. 2025):
± gives the uncertainty stated by the source.

B1: Transcription factor SOX-4, residues 60 to 127; numbered along this chain, Q06945 (parent)
chain: KRPMNAFMVWSQIERRKIMEQSPDMHNAEISKRLGKRWKLLKDSDKIPFIREAERLRLKHMADYPDYK
B2: POU domain, class 3, transcription factor 3, residues 408 to 463; numbered along this chain, P20264 (parent)
chain: KKRTSIEVSVKGALESHFLKCPKPSAQEITNLADSLQLEKEVVRVWFCNRRQKEKR

Variants of: B1
Assay: abundance fitness (aPCA) (normalised: wild type 0, dead -1); higher = more abundant; growth selection in yeast, the domain comes from the species named
Settings: Homo sapiens
M61V gave an abundance fitness of -0.073 ± 0.072. Variant M61W has an abundance fitness of -0.224 ± 0.083. In the case of M61Y, the abundance fitness is reported as -0.319 ± 0.25. A62C showed an abundance fitness of -0.15 ± 0.049. In the case of A62D, the abundance fitness is reported as 0.015 ± 0.046. Work on A62E yielded an abundance fitness of -0.078 ± 0.068. Work on A62F yielded an abundance fitness of -0.22 ± 0.059. For A62G, the abundance fitness was -0.017 ± 0.038. For A62H, the abundance fitness was -0.175 ± 0.067. A62I showed an abundance fitness of -0.163 ± 0.064. With A62K the abundance fitness was 0.008 ± 0.063. For A62L, the abundance fitness was -0.175 ± 0.042. With A62M the abundance fitness was -0.304 ± 0.075. With A62P the abundance fitness was -0.157 ± 0.067. With A62R the abundance fitness was -0.033 ± 0.041. A62S gave an abundance fitness of -0.021 ± 0.037. With A62V the abundance fitness was -0.123 ± 0.037. Work on A62W yielded an abundance fitness of -0.249 ± 0.054. With A62Y the abundance fitness was -0.104 ± 0.052. With D63A the abundance fitness was -0.074 ± 0.051. In the case of D63C, the abundance fitness is reported as -0.397 ± 0.063. For D63E, the abundance fitness was 0.044 ± 0.042. With D63F the abundance fitness was -0.283 ± 0.05. With D63G the abundance fitness was -0.142 ± 0.044. Variant D63H has an abundance fitness of -0.168 ± 0.057. For D63I, the abundance fitness was -0.181 ± 0.045. With D63K the abundance fitness was -0.128 ± 0.06. Work on D63L yielded an abundance fitness of -0.208 ± 0.039. With D63M the abundance fitness was 0.055 ± 0.052. With D63P the abundance fitness was -0.117 ± 0.074. D63S showed an abundance fitness of -0.153 ± 0.036. D63T showed an abundance fitness of -0.104 ± 0.041. Work on D63V yielded an abundance fitness of -0.224 ± 0.038. D63W gave an abundance fitness of -0.179 ± 0.061. Variant D63Y has an abundance fitness of -0.233 ± 0.057. For Y64A, the abundance fitness was -0.094 ± 0.093. Y64C showed an abundance fitness of -0.056 ± 0.2. In the case of Y64E, the abundance fitness is reported as 0.006 ± 0.083. Work on Y64F yielded an abundance fitness of -0.156 ± 0.094. Y64G showed an abundance fitness of -0.008 ± 0.073. Y64I gave an abundance fitness of -0.109 ± 0.18. Variant Y64K has an abundance fitness of 0.128 ± 0.095. In the case of Y64L, the abundance fitness is reported as 0.009 ± 0.046. With Y64M the abundance fitness was -0.061 ± 0.078. Variant Y64N has an abundance fitness of 0.124 ± 0.12. In the case of Y64P, the abundance fitness is reported as -0.009 ± 0.061. With Y64Q the abundance fitness was -0.112 ± 0.13. With Y64R the abundance fitness was 0.035 ± 0.068. Variant Y64S has an abundance fitness of 0.063 ± 0.056. With Y64T the abundance fitness was 0.059 ± 0.065. Variant Y64V has an abundance fitness of 0.02 ± 0.063. Variant Y64W has an abundance fitness of -0.25 ± 0.077. Variant P65A has an abundance fitness of -0.267 ± 0.083. P65D showed an abundance fitness of 0.103 ± 0.18. Variant P65E has an abundance fitness of -0.025 ± 0.076. In the case of P65G, the abundance fitness is reported as -0.059 ± 0.09. Variant P65H has an abundance fitness of -0.09 ± 0.11. With P65I the abundance fitness was -0.333 ± 0.15. With P65K the abundance fitness was 0.018 ± 0.07. With P65M the abundance fitness was -0.193 ± 0.089. Work on P65Q yielded an abundance fitness of 0.042 ± 0.063. In the case of P65R, the abundance fitness is reported as -0.174 ± 0.056. For P65S, the abundance fitness was 0.102 ± 0.062. In the case of P65T, the abundance fitness is reported as -0.064 ± 0.075. P65V gave an abundance fitness of -0.097 ± 0.068. For P65W, the abundance fitness was -0.466 ± 0.11. For P65Y, the abundance fitness was -0.124 ± 0.24. Work on D66A yielded an abundance fitness of -0.186 ± 0.066. Variant D66C has an abundance fitness of -0.422 ± 0.1. D66E gave an abundance fitness of 0.102 ± 0.085. For D66G, the abundance fitness was -0.08 ± 0.07. For D66H, the abundance fitness was -0.141 ± 0.13. D66I gave an abundance fitness of -0.13 ± 0.19. For D66K, the abundance fitness was -0.11 ± 0.082. In the case of D66L, the abundance fitness is reported as -0.152 ± 0.06. Variant D66P has an abundance fitness of -0.067 ± 0.079. D66Q showed an abundance fitness of -0.254 ± 0.083. Variant D66R has an abundance fitness of 0.015 ± 0.078. For D66T, the abundance fitness was -0.216 ± 0.069. Variant D66V has an abundance fitness of -0.157 ± 0.049. Work on D66W yielded an abundance fitness of -0.325 ± 0.13. D66Y gave an abundance fitness of -0.537 ± 0.26. Y67A showed an abundance fitness of 0.028 ± 0.093. Variant Y67C has an abundance fitness of -0.04 ± 0.15. For Y67E, the abundance fitness was 0.179 ± 0.083. In the case of Y67F, the abundance fitness is reported as 0.259 ± 0.25. Variant Y67G has an abundance fitness of 0.119 ± 0.081. Y67H showed an abundance fitness of -0.301 ± 0.38. Work on Y67I yielded an abundance fitness of 0.11 ± 0.15. Variant Y67K has an abundance fitness of 0.116 ± 0.11. In the case of Y67L, the abundance fitness is reported as -0.022 ± 0.046. For Y67M, the abundance fitness was -0.069 ± 0.093. In the case of Y67N, the abundance fitness is reported as 0.034 ± 0.15. Work on Y67P yielded an abundance fitness of -0.057 ± 0.088. In the case of Y67Q, the abundance fitness is reported as 0.051 ± 0.15. Variant Y67R has an abundance fitness of 0.048 ± 0.11. With Y67S the abundance fitness was 0.088 ± 0.078. Work on Y67T yielded an abundance fitness of -0.14 ± 0.08. Variant Y67V has an abundance fitness of 0.159 ± 0.085. In the case of Y67W, the abundance fitness is reported as -0.296 ± 0.11. K68C showed an abundance fitness of -0.242 ± 0.17. Work on K68E yielded an abundance fitness of -0.155 ± 0.11. K68L gave an abundance fitness of -0.297 ± 0.42. With K68M the abundance fitness was -0.23 ± 0.31. With K68P the abundance fitness was 0.128 ± 0.35. Variant K68R has an abundance fitness of -0.068 ± 0.079. K68S gave an abundance fitness of -0.17 ± 0.096. For K68T, the abundance fitness was -0.436 ± 0.45. K68V gave an abundance fitness of -0.43 ± 0.34. With K68Y the abundance fitness was -0.125 ± 0.2.

Variants of: B2
Assay: as above
Settings: Homo sapiens
AKRTSIEVSVKGALESHFLKCPKPSAQEITNLADSLQLEKEVVRVWFCNRRQKEKR gave an abundance fitness of -0.075 ± 0.27. With CKRTSIEVSVKGALESHFLKCPKPSAQEITNLADSLQLEKEVVRVWFCNRRQKEKR the abundance fitness was -0.104 ± 0.17. Work on DKRTSIEVSVKGALESHFLKCPKPSAQEITNLADSLQLEKEVVRVWFCNRRQKEKR yielded an abundance fitness of -0.124 ± 0.13. GKRTSIEVSVKGALESHFLKCPKPSAQEITNLADSLQLEKEVVRVWFCNRRQKEKR showed an abundance fitness of -0.067 ± 0.1. Variant IKRTSIEVSVKGALESHFLKCPKPSAQEITNLADSLQLEKEVVRVWFCNRRQKEKR has an abundance fitness of -0.181 ± 0.16. Variant LKRTSIEVSVKGALESHFLKCPKPSAQEITNLADSLQLEKEVVRVWFCNRRQKEKR has an abundance fitness of -0.756 ± 0.24. In the case of MKRTSIEVSVKGALESHFLKCPKPSAQEITNLADSLQLEKEVVRVWFCNRRQKEKR, the abundance fitness is reported as -0.333 ± 0.23. With NKRTSIEVSVKGALESHFLKCPKPSAQEITNLADSLQLEKEVVRVWFCNRRQKEKR the abundance fitness was -0.072 ± 0.2. Work on QKRTSIEVSVKGALESHFLKCPKPSAQEITNLADSLQLEKEVVRVWFCNRRQKEKR yielded an abundance fitness of -0.271 ± 0.27. In the case of RKRTSIEVSVKGALESHFLKCPKPSAQEITNLADSLQLEKEVVRVWFCNRRQKEKR, the abundance fitness is reported as -0.263 ± 0.12. Work on SKRTSIEVSVKGALESHFLKCPKPSAQEITNLADSLQLEKEVVRVWFCNRRQKEKR yielded an abundance fitness of -0.154 ± 0.14. Variant VKRTSIEVSVKGALESHFLKCPKPSAQEITNLADSLQLEKEVVRVWFCNRRQKEKR has an abundance fitness of -0.092 ± 0.33. WKRTSIEVSVKGALESHFLKCPKPSAQEITNLADSLQLEKEVVRVWFCNRRQKEKR showed an abundance fitness of -0.15 ± 0.34. Variant YKRTSIEVSVKGALESHFLKCPKPSAQEITNLADSLQLEKEVVRVWFCNRRQKEKR has an abundance fitness of -0.258 ± 0.23. In the case of KARTSIEVSVKGALESHFLKCPKPSAQEITNLADSLQLEKEVVRVWFCNRRQKEKR, the abundance fitness is reported as -0.13 ± 0.12. For KCRTSIEVSVKGALESHFLKCPKPSAQEITNLADSLQLEKEVVRVWFCNRRQKEKR, the abundance fitness was -0.332 ± 0.2. Work on KDRTSIEVSVKGALESHFLKCPKPSAQEITNLADSLQLEKEVVRVWFCNRRQKEKR yielded an abundance fitness of -0.098 ± 0.14. In the case of KERTSIEVSVKGALESHFLKCPKPSAQEITNLADSLQLEKEVVRVWFCNRRQKEKR, the abundance fitness is reported as -0.054 ± 0.13. Variant KFRTSIEVSVKGALESHFLKCPKPSAQEITNLADSLQLEKEVVRVWFCNRRQKEKR has an abundance fitness of 0.056 ± 0.16. KGRTSIEVSVKGALESHFLKCPKPSAQEITNLADSLQLEKEVVRVWFCNRRQKEKR gave an abundance fitness of -0.025 ± 0.089. With KHRTSIEVSVKGALESHFLKCPKPSAQEITNLADSLQLEKEVVRVWFCNRRQKEKR the abundance fitness was -0.38 ± 0.36. With KIRTSIEVSVKGALESHFLKCPKPSAQEITNLADSLQLEKEVVRVWFCNRRQKEKR the abundance fitness was -0.374 ± 0.17. With KMRTSIEVSVKGALESHFLKCPKPSAQEITNLADSLQLEKEVVRVWFCNRRQKEKR the abundance fitness was -0.066 ± 0.12. Work on KNRTSIEVSVKGALESHFLKCPKPSAQEITNLADSLQLEKEVVRVWFCNRRQKEKR yielded an abundance fitness of -0.094 ± 0.14. In the case of KPRTSIEVSVKGALESHFLKCPKPSAQEITNLADSLQLEKEVVRVWFCNRRQKEKR, the abundance fitness is reported as -0.305 ± 0.15.
